B1: cAMP-regulated phosphoprotein 19 (Homo sapiens), P56211 (parent)
chain: MSAEVPEAASAEEQKEMEDKVTSPEKAEEAKLKARYPHLGQKPGGSDFLRKRLQKGQKYFDSGDYNMAKAKMKNKQLPTAAPDKTEVTGDHIPTPQDLPQRKPSLVASKLAG
partner: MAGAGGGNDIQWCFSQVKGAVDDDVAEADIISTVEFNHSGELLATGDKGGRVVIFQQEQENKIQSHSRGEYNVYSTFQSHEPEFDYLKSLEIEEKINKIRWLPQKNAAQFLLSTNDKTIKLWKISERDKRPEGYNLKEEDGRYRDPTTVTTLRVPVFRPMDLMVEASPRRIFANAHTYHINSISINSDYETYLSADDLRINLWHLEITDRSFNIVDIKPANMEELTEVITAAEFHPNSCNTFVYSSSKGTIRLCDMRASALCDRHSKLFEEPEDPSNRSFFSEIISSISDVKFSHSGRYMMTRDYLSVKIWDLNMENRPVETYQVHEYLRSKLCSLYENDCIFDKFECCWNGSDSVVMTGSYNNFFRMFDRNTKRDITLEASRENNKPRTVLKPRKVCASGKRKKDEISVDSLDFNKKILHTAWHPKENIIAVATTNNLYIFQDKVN

The variants in the experiment derive from B1. The following applies: with 2aba_human PPP2R2A.
Turning to S62E, the “effect of a mutation on the interaction” value is given as “with no effect”.

For the origin of these results see IntAct's records for PubMed 38123684.
